Experimental data as given in US20220372154A1 (APEXIGEN, published 2022).
Numbering of substitutions follows the chain as printed. One block for each binder: values may come before it.

How the values were obtained:
[1] = target: T1, human TNFR2-His tagged protein (soluble) (human, UniProt P20333 23-257); test: ELISA on coated human TNFR2-His
T1 construct: also called hTNFR2 (soluble); soluble TNFR2-His; not shown: His tag
T1 sequence (looked up): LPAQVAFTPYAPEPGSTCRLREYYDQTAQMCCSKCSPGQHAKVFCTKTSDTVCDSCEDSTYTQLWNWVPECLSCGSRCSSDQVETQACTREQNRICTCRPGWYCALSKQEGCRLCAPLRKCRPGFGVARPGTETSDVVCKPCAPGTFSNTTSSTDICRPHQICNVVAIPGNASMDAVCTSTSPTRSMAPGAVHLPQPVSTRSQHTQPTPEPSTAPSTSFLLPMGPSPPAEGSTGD
Method: (§1) In FIGS. 3A-3B, human (3A) or cynomolgus (3B) TNFR2-His tagged protein was coated on 96-well ELISA plates at 1 μg/mL and incubated overnight at 4° C. Plates were washed and blocked using 1% BSA. Antibodies were added for 1 hour at room temperature (RT), washed, and detected using anti-Human HRP. Assay was developed using TMB substrate for 3-5 minutes. In FIG. 3C, FACS binding was performed on CHO cells that were engineered to express human TNFR2. Briefly, antibodies were incubated with 200,000 cells in MACS buffer for 1 hour followed by wash and detection using anti-human IgG BV421 for 20 minutes. Samples were analyzed using Cytoflex or MACSQuant flow cytometers. In FIG. 3D, ligand blocking ELISA was performed by coating plates with 1 ug/mL TNFR-Fc overnight at 4° C. Plates were washed, blocked and antibodies were incubated for 1 hr at RT. […] Assay was developed using TMB substrate for 5-7 minutes.

[2] = target: T2, cynomolgus TNFR2-His tagged protein (cynomolgus, UniProt A0A2K5VET2 132-366); test: ELISA on coated cynomolgus TNFR2-His
T2 construct: also called Cyno TNFR2; cynomolgus TNFR2 protein; not shown: His tag
T2 sequence: T1 sequence (looked up) with S16G, S36P, P117Q, N164H, E210A, S216G, M223V
Method: as §1

TNFR-Fc = target: T3, TNFR-Fc (UniProt P20333 23-257, limits assumed); test: TNF-α blocking ELISA on coated TNFR-Fc
T3 construct: Printed only as TNFR-Fc; not shown: Fc part
T3 sequence (looked up): T1 sequence (looked up)
Method: as §1

[3] = target: T4, human TNFR2 expressed on cells (human, UniProt P20333 23-461); test: flow cytometry on CHO cells expressing human TNFR2
T4 construct: whole, on cells; also called hTNFR2 (cell); CHO-TNFR2
T4 sequence (looked up): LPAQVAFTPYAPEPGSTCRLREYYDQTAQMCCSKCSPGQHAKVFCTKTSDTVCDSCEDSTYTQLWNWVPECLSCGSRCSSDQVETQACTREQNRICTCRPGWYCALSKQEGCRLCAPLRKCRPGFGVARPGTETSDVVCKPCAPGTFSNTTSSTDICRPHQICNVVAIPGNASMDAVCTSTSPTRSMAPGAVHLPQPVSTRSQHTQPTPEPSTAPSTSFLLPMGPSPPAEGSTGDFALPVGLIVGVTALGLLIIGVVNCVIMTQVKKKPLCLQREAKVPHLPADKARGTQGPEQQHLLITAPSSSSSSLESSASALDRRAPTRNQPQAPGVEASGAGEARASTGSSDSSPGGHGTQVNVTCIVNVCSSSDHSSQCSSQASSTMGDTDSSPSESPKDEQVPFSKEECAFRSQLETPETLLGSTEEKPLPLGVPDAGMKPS
Method: as §1

soluble mouse TNFR2 = target: T5, soluble mouse TNFR2 (mouse, UniProt P25119 23-258, limits assumed); test: binding screen on soluble mouse TNFR2 (mouse cross-reactivity)
T5 sequence (looked up): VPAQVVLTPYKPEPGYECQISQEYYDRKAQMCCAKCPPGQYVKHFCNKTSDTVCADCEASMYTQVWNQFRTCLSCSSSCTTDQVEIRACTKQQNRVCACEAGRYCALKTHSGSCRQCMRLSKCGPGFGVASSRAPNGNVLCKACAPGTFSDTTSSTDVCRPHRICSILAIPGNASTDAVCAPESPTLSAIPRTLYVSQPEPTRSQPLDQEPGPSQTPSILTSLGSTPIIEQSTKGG

- EC50 [1]: 0.098 nM
- EC50 [2]: 0.093 nM
- IC50 (TNFR-Fc): 3.16 nM
- EC50 [3]: 0.1 nM
- binding result (soluble mouse TNFR2): no binding
B1: chimeric antibody clone 24 (rab600_23_24) (antibody, V domains shown)
VH: QSLEESGGRLVTPGTPLTLTCTASGFSLNSYGVNWVRQAPGKGLEWIGGINTGGSTYYANWAKGRFTISKTSAMVDLKVTSPTTEDTATYVCARTSGNNVYNYFTLWGQGTLVTVSS
VL: DIVMTQTPSSVSAAVGGTVTIYCQASQSIPSLLAWYQQKSGQPPKLLIYAPSTLASGVPSRFKASGSGTQFTLTISDLECADAATYYCQSYYYGDNTYNNIFGGGTEVVVK

- EC50 [1]: 0.156 nM
- EC50 [2]: 0.081 nM
- IC50 (TNFR-Fc): 27.8 nM
- binding result (soluble mouse TNFR2): no binding
B2: chimeric antibody clone 37D1.4 (rab600_23_37D1.4) (antibody, V domains shown)
VH: QSLEESGGRLVTPGTPLTLTCTVSGFSLNSNGMNWVRQAPGKGLEWIGGINAGGSAYYANWAKGRFTISKTSTMVDLKITSPTTEDTATYFCAKTSGINVYNYLNLWGQGTLVTVSS
VL: B1 VL with S10P, Y22N, P30Y, S31T, L32A, P51A, A64G, S90N, I101T

- EC50 [1]: 0.157 nM
- EC50 [2]: 0.0927 nM
- IC50 (TNFR-Fc): 24.6 nM
- binding result (soluble mouse TNFR2): no binding
B3: chimeric antibody clone 8G11.5 (rab600_23_8G11.5) (antibody, V domains shown)
VH: B2 VH
VL: B1 VL with S10P, Y22N, P30Y, S31T, L32A, P51A, A64G, S90N, I101T

- EC50 [1]: 0.242 nM
- EC50 [2]: 0.184 nM
- IC50 (TNFR-Fc): 11.2 nM
- EC50 [3]: 0.091 nM
- binding result (soluble mouse TNFR2): no binding
B4: chimeric antibody clone 42 (rab600_25_42) (antibody, V domains shown)
VH: QSLEESGGRLVTPGTPLTLTCTVSGIDLSTYAMIWVRQAPGKGLEYIGFIRPGGSAWYASWAKGRFTISKTSTTVDREITSPTTEDTATYFCATYDTYGYGDTRLWGPGTLVTVSS
VL: AYDMTQTPASVEVAVGGTVTIKCQASESIFSYLAWYQQKPGQRPKLLIYYASTLASGVPSRFKGSGSGTQFTLTISGVECADAATYYCQQGYDFSAVDNVFGGGTEVVVK

- EC50 [1]: 0.261 nM
- EC50 [2]: 0.191 nM
- binding result (soluble mouse TNFR2): no binding
B5: chimeric antibody clone 11G12.1 (rab600_23_11G12.1) (antibody, V domains shown)
VH: QSLEESGGDLVQPGASLTLTCTASGFSVNVNSYMCWVRQAPGKGLELIACIDTGSGGSTWYGSWAKGRFTISKSTNLNTVTLQMTSLTAADTATYFCARARNTYGYGDYVYGGAFDPWGPGTLVTVSS
VL: DIVMTQTPASVEAAVGGTVTIKCQASQSISSTYLSWYQQKPGQRPKLLIYQASTLASGVPSRFKGSGSGTEFTLTISDLECADAATYYCQGGYFSDNGCYNAFGGGTEVVVK
notes: also called rab600_23_HG12.1

- EC50 [1]: 0.149 nM
- EC50 [2]: 0.0763 nM
- IC50 (TNFR-Fc): 2.97 nM
- EC50 [3]: 0.321 nM
- binding result (soluble mouse TNFR2): no binding
B6: chimeric antibody clone 28B7.3 (rab600_23_28B7.3) (antibody, V domains shown)
VH: QSVEESGGRLVTPGTPLTLTCTVSGFSLNSHYMIWVRQAPGKGLEYIGIITSSDYIYYARWAKGRFTISKTSSTTVDLKITSPTTEDTATYSCARYNYDDDGELFNLWGQGTLVTVSS
VL: AVLTQTPSSVSAAVGGTVTLNCQSSQSIDANNDLAWYQQKPGQPPRLLIYLASKLASGVPSRFSGSGSGTQFTLTISGVQCDDAATYYCLGGYDDDADNTFGGGTEVVVK

- EC50 [1]: 0.184 nM
- EC50 [2]: 0.195 nM
- IC50 (TNFR-Fc): 2.92 nM
- binding result (soluble mouse TNFR2): no binding
B7: chimeric antibody clone 37H4.1 (rab600_23_37H4.1) (antibody, V domains shown)
VH: B6 VH with I49V, S92F
VL: B6 VL with R46K, K54T, L55R, S64K, D82Y

- EC50 [1]: 0.124 nM
- EC50 [2]: 0.0862 nM
- IC50 (TNFR-Fc): 4.35 nM
- EC50 [3]: 1.32 nM
- binding result (soluble mouse TNFR2): no binding
B8: chimeric antibody clone 55F6.1 (taken as rab600_23_55F6.6) (antibody, V domains shown)
VH: QQQLEESGGDLVKPGASLTVTCTASGFSFTNNYYMCWVRQAPGKGLEWIGCIYPSIVGPTYYANWAKGRFTISKTSSTTVTLEMTSLTAADTATYFCVRDRYDDYGDYFNLWGPGTLVTVSS
VL: DIVMTQTPASVSVPVGGTVTIKCQASQSIYNYLSWYQQKPGQPPKRLIYYASTLASGVPSRFSGSGSGTEFTLTISDLECADAATYYCQSNSGVNGNRYGNAFGGGTEVVVK

- EC50 [1]: 0.126 nM
- EC50 [2]: 0.148 nM
- IC50 (TNFR-Fc): 3.25 nM
- EC50 [3]: 0.1 nM
- binding result (soluble mouse TNFR2): no binding
B9: chimeric antibody clone 37 (rab600_25_37) (antibody, V domains shown)
VH: QSVEESGGRLVTPGTPLILTCTVSGIDLSNYAMGWFRQAPGEGLEWIGSRRTDGITYYANWAEGRFTISRTSTTVDLEITSPTTEDTATYFCGRDVGGDGGWYFNLWGPGTLVTVSS
VL: AGDMTQTPASVEVAVGGTVTIKCQASQSINIYLAWYQQKPGQPPKLLIYDASKLASGVPSRFSGSGSGTEFTLTISDLECADAATYYCQQGINNIGFGGGTEVVVK

- EC50 [1]: 0.144 nM
- EC50 [2]: 0.151 nM
- IC50 (TNFR-Fc): 2.78 nM
- EC50 [3]: 0.147 nM
- binding result (soluble mouse TNFR2): no binding
B10: chimeric antibody clone 9 (rab600_25_9) (antibody, V domains shown)
VH: QSVEESGGRLVTPGTPLTLTCTVSGFSLSTYDINWVRQAPGKGLEWIGIIYTGGITNFANWAKGRFTISKTSTTVDLKIASPTTEDTATYFCARGGYDSDGYVYPDAFDPWGPGTLVTVSS
VL: ALVMTQTPASVEADVGGTVTINCQASESISNLLAWYQQKPGQRPKLLIYRASILTSGVSSRFKGSGSGTEYTLTINGVQCADAATYYCQHGYTGTNVQNVFGGGTEVVVK

- EC50 [1]: 0.206 nM
- EC50 [2]: 0.243 nM
- IC50 (TNFR-Fc): 5.41 nM
- EC50 [3]: 0.26 nM
- binding result (soluble mouse TNFR2): no binding
B11: chimeric antibody clone 23.71 (rab600_23_71) (antibody, V domains shown)
VH: QSVEESGGRLVTPGTSLTLTCTVSGIDLSSYAMSWVRQAQGKGLEWIGIIGDSGSTWYASWAKGRFTISKTSTTVDLKITSPTPEDTATYFCAREPDYGGYAGYGYGDLWGQGTLVTVSS
VL: IKMTQTLASVSAAVGGTGSISCQASEDIGNYVAWYQQKPGQPPKFLIYDTSHLASGVPSRFKGSRSGKEFTLTISGVQCDDAATYYCQHGYYTSDTDNTFGGGTEVVVK

- EC50 [1]: 0.243 nM
- EC50 [2]: 0.269 nM
- binding result (soluble mouse TNFR2): no binding
B12: chimeric antibody clone 8G10.7 (rab600_23_8G10.7) (antibody, V domains shown)
VH: LEQSGGGAGGGLVKPGGSLELCCKASGFTLINSHWICWVRQAPGKGLEWIGCIFAGSAGSTYYATWVSGRFTLSRDIDQNTGCLQLNSLTAADTAMYYCARDQTNTAYDPFYLNLWGQGTLVTVSS
VL: IEMTQTPFSVSAAVGGTVTINCQASENIYSSLAWYQQKPGQPPKLLIYAASDLASGVPSRFSGSGSGTEYTLTISGVQCADAATYYCQSAYSSGSDDNGFGGGTEVVVK

- EC50 [1]: 0.147 nM
- EC50 [2]: 0.197 nM
- IC50 (TNFR-Fc): 2.98 nM
- EC50 [3]: 0.091 nM
- binding result (soluble mouse TNFR2): no binding
B13: chimeric antibody clone 25.71 (rab600_25_71) (antibody, V domains shown)
VH: QSVEESEGRLVTPGTPLTLTCTVSGIDLSSYAMGWVRQAPGMGLEWIGDISTSGNAYYATWVKGRFTISRTSTTVDLKMASLTTADTATYFCARADYGGETYAFDPWGPGTLVTVSS
VL: DIVMTQTPASVEAAVGGTVTIKCQASQSISSYLNWYQQKPGQPPKLLIYSASTLASGVPSRFKGSGSGTQFTLTISGVECADAATYYCQQGYSDSNIDNVFGGGTEVVVK
